From patent US20210301025A1 (published 2021) come the findings set out here.

Experiment [1] concerns the target EGFR (form used in the assay not stated) (human, UniProt P00533 25-645, limits assumed). Description: affinity quoted in text, assay not stated.
Experiment [2] concerns the target T1, Recombinant human c-Met Fc chimera (human, UniProt P08581 16-932).
T1 construct: whole c-Met entry named; also called c-Met-Fc fusion protein
The experiment can be described thus: competition with biotinylated HGF on plate-coated c-Met-Fc.

Experiment [3] has as its target T2, human c-Met on cells (NCI-H441, NCI-H292, U87-MG) (human, UniProt P08581 25-1390). The experiment can be described thus: cell-based or functional assay.
For experiment [4], the target named is T2, human c-Met on cells (NCI-H441, …). Description: NCI-H441 cell binding, anti-His fluorescence. Here is the method:
Purified FN3 domains (50 μL/well; 0 to 1000 nM) were added to the cells for 1 hour at 4° C. in duplicate plates. Supernatant was removed and cells were washed three times with FACS stain buffer (150 μL/well, BD Biosciences, cat #554657). Cells were incubated with biotinylated-anti HIS antibody (diluted 1:160 in FACS stain buffer, 50 μL/well, R&D Systems, cat # BAM050) for 30 minutes at 4° C. Cells were washed three times with FACS stain buffer (150 μL/well), after which wells were incubated with anti mouse IgG1-Alexa 488 conjugated antibody (diluted 1:80 in FACS stain buffer, 50 μL/well, Life Technologies, cat # A21121) for 30 minutes at 4° C. Cells were washed three times with FACS stain buffer (150 μL/well) and left in FACS stain buffer (50 μL/well). Total fluorescence was determined using an Acumen eX3 reader. Data were plotted as raw fluorescence signal against the logarithm of the FN3 domain molar concentration and fitted to a sigmoidal dose-response curve with variable slope using GraphPad Prism 4 (GraphPad Software) to calculate EC₅₀ values.

For experiment [5], the target named is T3, recombinant c-Met extracellular domain (human, UniProt P08581 16-932).
T3 construct: Construct used for SPR is not described further (may be the Fc chimera, as the protocol captures on anti-human Fc)
The experiment can be described thus: SPR kinetic analysis as in Example 2.

Experiment [6] has as its target T2, human c-Met on cells (NCI-H441, …). The experiment can be described thus: cell-based or functional assay. The source holds these as a separate data set.

B1: P53A1R5-17v2 (designed binder)
chain: LPAPKNLVVSEVTEDSARLSWADPHGFYDSFLIQYQESEKVGEAIVLTVPGSERSYDLTGLKPGTEYTVSIYGVHNVYKDTNMRGLPLSAIFTT
Molecule B1 showed an equilibrium dissociation constant (Kd) in experiment [1] of 1.9 nM.

B2: P114AR5P74-A5 (designed binder, not shown: small tags and cut ends)
chain: LPAPKNLVVSRVTEDSARLSWTAPDAAFDSFWIRYDEVVVGGEAIVLTVPGSERSYDLTGLKPGTEYYVNILGVKGGSISVPLSAIFTT
Take B2: in experiment [2], the IC50 is 5.2 nM. The “IC50 of inhibition of c-Met phosphorylation, NCI-H292 cells” value in experiment [3] came out at 610 nM. This molecule registered an EC50 in experiment [4] of 18.7 nM. In experiment [5], the equilibrium dissociation constant (Kd) worked out at 10.1 nM. In experiment [6], the “Inhibition of proliferation of U87-MG cells IC50” value came out at 464 nM and the “pMet inhibition in H441 cells IC50” value came out at 1080 nM.
